Assay results published in the supplement of paper PMC10126150.
± gives the standard deviation of the averaged measurements.
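Note: ATP exposure 15 min at 22 °C before imaging.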

What follows are sequences tested on ATP (assay: switch fluorescence ratio, 500 uM ATP over buffer (Cy3 cluster intensity, sum of 5 cycles each) (fold (ratio)); higher = stronger signal-on switching upon ATP binding; sequences stand for … in TCGTCGGCAGCGTCAGATGTGTATAAGAGACAGTTTTTTTTTTTTTTTTTTTTTTTTT…TC). Conditions: aptamer strand: ATP DNA aptamer (quencher-CACCTGGGGGAGTATTGCGGAGGAAGG + anchor), 100 nM annealed; ATP concentration: 500 uM.
Summary of the method: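 The fluorescence ratio divides summed target-cycle Cy3 intensity by summed buffer-cycle Cy3 intensity for each cluster and is averaged per switch-domain sequence. Cy3-labelled switching-strand clusters on a modified Illumina MiSeq flow-cell were annealed to 100 nM quencher-labelled ATP aptamer, then imaged in selection buffer and again after 15 min with 500 uM ATP at 22 °C. Five such cycles were run, with NaOH stripping and re-annealing between them, and clusters outside 100-1000 RFU were excluded.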
CTTCCACGGT showed a switch fluorescence ratio of 1.21 ± 0.12. With CTTCCGCTTG the switch fluorescence ratio was 1.58 ± 0.021. CTTCGGACCG was tested, and the switch fluorescence ratio was 1.03 ± 0.096. CTTCGGAGGT gave a switch fluorescence ratio of 1.028 ± 0.0037. CTTCGGTGTT showed a switch fluorescence ratio of 0.9967 ± 0.0085. In the case of CTTCGTGACA, the switch fluorescence ratio is reported as 1.042 ± 0.0027. CTTCGTGATG gave a switch fluorescence ratio of 1.1044 ± 0.00079. For CTTCTGAGGT, the switch fluorescence ratio was 1.74 ± 0.95. Work on CTTCTGTGGC yielded a switch fluorescence ratio of 1.071 ± 0.0073. Sequence CTTCTTGTGG has a switch fluorescence ratio of 0.9925 ± 0.009. For CTTCTTGTTT, the switch fluorescence ratio was 1.008 ± 0.0037. CTTCTTTGTG showed a switch fluorescence ratio of 0.996 ± 0.018. CTTGAAGTTA showed a switch fluorescence ratio of 1 ± 0.011. Sequence CTTGAATGTC has a switch fluorescence ratio of 1.05 ± 0.054. CTTGAATGTG was tested, and the switch fluorescence ratio was 1 ± 0.013. For CTTGACAGAG, the switch fluorescence ratio was 0.9835 ± 0.0074. Sequence CTTGAGTGTT has a switch fluorescence ratio of 0.996 ± 0.011. In the case of CTTGATAACG, the switch fluorescence ratio is reported as 1.024 ± 0.0033. CTTGATGTAA showed a switch fluorescence ratio of 1 ± 0.064. In the case of CTTGATTAGG, the switch fluorescence ratio is reported as 0.9981 ± 0.0037. CTTGATTTTT gave a switch fluorescence ratio of 1 ± 0.016. CTTGCATGGC gave a switch fluorescence ratio of 1.077 ± 0.0092. With CTTGCGGGGC the switch fluorescence ratio was 1.03 ± 0.051. CTTGCGTGTC gave a switch fluorescence ratio of 1.03 ± 0.038. CTTGCTTGAG was tested, and the switch fluorescence ratio was 1.003 ± 0.0007. CTTGGAGGGT gave a switch fluorescence ratio of 1.04 ± 0.086. CTTGGAGTGG showed a switch fluorescence ratio of 0.978 ± 0.024. Sequence CTTGGCAGGG has a switch fluorescence ratio of 0.99 ± 0.02. With CTTGGGATTT the switch fluorescence ratio was 0.98 ± 0.013. CTTGGGGATT gave a switch fluorescence ratio of 0.99 ± 0.044. CTTGGGGCAT was tested, and the switch fluorescence ratio was 1.025 ± 0.008. In the case of CTTGGGGGCT, the switch fluorescence ratio is reported as 1.002 ± 0.0097. Work on CTTGGTTACG yielded a switch fluorescence ratio of 0.9738 ± 0.0093. Sequence CTTGGTTCGA has a switch fluorescence ratio of 0.978 ± 0.026. CTTGGTTTCT showed a switch fluorescence ratio of 1.032 ± 0.0093. With CTTGTATTAC the switch fluorescence ratio was 1.16 ± 0.024. In the case of CTTGTCATCG, the switch fluorescence ratio is reported as 0.993 ± 0.037. CTTGTGGCTA gave a switch fluorescence ratio of 0.956 ± 0.046. With CTTGTGTTCT the switch fluorescence ratio was 0.9964 ± 0.004. CTTGTTCTTA gave a switch fluorescence ratio of 0.996 ± 0.024. CTTTAAGTTT was tested, and the switch fluorescence ratio was 0.9967 ± 0.0093. In the case of CTTTATAATC, the switch fluorescence ratio is reported as 0.986 ± 0.026. Sequence CTTTATGGGG has a switch fluorescence ratio of 0.974 ± 0.029. For CTTTATTGGA, the switch fluorescence ratio was 0.971 ± 0.013. CTTTCAAGGT gave a switch fluorescence ratio of 1.006 ± 0.0032. With CTTTCCCTTT the switch fluorescence ratio was 1.01 ± 0.03. CTTTCGGGCT showed a switch fluorescence ratio of 1.01 ± 0.026. CTTTCTCAA showed a switch fluorescence ratio of 1.32 ± 0.44. With CTTTGAAGGA the switch fluorescence ratio was 0.992 ± 0.03. CTTTGATTGG gave a switch fluorescence ratio of 0.99 ± 0.04. Work on CTTTGATTTT yielded a switch fluorescence ratio of 1.01 ± 0.019. For CTTTGCATTA, the switch fluorescence ratio was 1.7035 ± 0.00023. CTTTGCCTGG gave a switch fluorescence ratio of 0.98 ± 0.026. CTTTGGAGGT gave a switch fluorescence ratio of 0.985 ± 0.016. In the case of CTTTGGCTTT, the switch fluorescence ratio is reported as 0.967 ± 0.014. CTTTGGGGCT gave a switch fluorescence ratio of 0.999 ± 0.038. CTTTGGGTGG showed a switch fluorescence ratio of 1.03 ± 0.058. Work on CTTTGTAGT yielded a switch fluorescence ratio of 1.013 ± 0.01. Work on CTTTGTATGG yielded a switch fluorescence ratio of 1 ± 0.017. Work on CTTTGTATGT yielded a switch fluorescence ratio of 0.982 ± 0.029. Sequence CTTTGTCTGA has a switch fluorescence ratio of 1.022 ± 0.0085. For CTTTGTTACG, the switch fluorescence ratio was 1.048 ± 0.0015. For CTTTTACCAA, the switch fluorescence ratio was 0.992 ± 0.046. Sequence CTTTTAGAGA has a switch fluorescence ratio of 1.02 ± 0.015. In the case of CTTTTAGGGA, the switch fluorescence ratio is reported as 0.989 ± 0.028. In the case of CTTTTAGGTG, the switch fluorescence ratio is reported as 1.11 ± 0.12. CTTTTAGTGG gave a switch fluorescence ratio of 0.9714 ± 0.0059. For CTTTTAGTTT, the switch fluorescence ratio was 0.9963 ± 0.0034. CTTTTCTTAA gave a switch fluorescence ratio of 0.996 ± 0.0011. With CTTTTGGATT the switch fluorescence ratio was 0.998 ± 0.022. In the case of CTTTTTAGGC, the switch fluorescence ratio is reported as 1 ± 0.043. In the case of CTTTTTCTTT, the switch fluorescence ratio is reported as 1.01 ± 0.057. For CTTTTTGCAT, the switch fluorescence ratio was 1.02 ± 0.013. Sequence CTTTTTGTGT has a switch fluorescence ratio of 0.987 ± 0.019. CTTTTTTTTT showed a switch fluorescence ratio of 1.02 ± 0.063. For GAAAAAAAGC, the switch fluorescence ratio was 1.01 ± 0.053. GAAAAAAGCG showed a switch fluorescence ratio of 1.01 ± 0.041. GAAAAACCTT showed a switch fluorescence ratio of 3.83 ± 1.6. With GAAAAAGGTG the switch fluorescence ratio was 1.1 ± 0.028. GAAAAAGGTT showed a switch fluorescence ratio of 0.969 ± 0.011. GAAAAAGTCA gave a switch fluorescence ratio of 1.01 ± 0.023. GAAAAGAGGC showed a switch fluorescence ratio of 1.1 ± 0.039. In the case of GAAAAGATTA, the switch fluorescence ratio is reported as 0.997 ± 0.028. GAAAAGGGT showed a switch fluorescence ratio of 1.08 ± 0.065. GAAAAGGTAA was tested, and the switch fluorescence ratio was 1.025 ± 0.0033. GAAAATCAGC was tested, and the switch fluorescence ratio was 0.976 ± 0.071. Sequence GAAAATGAAG has a switch fluorescence ratio of 1.01 ± 0.031. Sequence GAAAATGTTT has a switch fluorescence ratio of 1.0053 ± 2.1e-05. GAAAATTGGG was tested, and the switch fluorescence ratio was 0.983 ± 0.015. GAAACCGGAT gave a switch fluorescence ratio of 0.966 ± 0.041. With GAAACGATGT the switch fluorescence ratio was 1.08 ± 0.05. For GAAACGCTTT, the switch fluorescence ratio was 1.03 ± 0.057. GAAACGGCGG showed a switch fluorescence ratio of 1.04 ± 0.055. GAAACTAATT was tested, and the switch fluorescence ratio was 0.9966 ± 0.0042. GAAACTTGAC gave a switch fluorescence ratio of 1.61 ± 0.039. Sequence GAAAGGAATG has a switch fluorescence ratio of 1.041 ± 0.007. Sequence GAAAGGGTGG has a switch fluorescence ratio of 0.9746 ± 0.0081. For GAAAGGTTGG, the switch fluorescence ratio was 0.993 ± 0.025. With GAAAGTATAA the switch fluorescence ratio was 0.998 ± 0.013. With GAAAGTTAAG the switch fluorescence ratio was 1.015 ± 0.0049.
